Measurements published in patent US20220144936A1 (SINOCELLTECH, published 2022).
Where “and” joins values, the source holds several entries; their conditions need not be identical. Equal entries are not always repeated.

T1: mouse mIL17A protein (Sino Biological, Inc.) (mouse, UniProt Q62386 26-158)
T1 construct: also called mouse IL17A protein
T1 sequence (looked up): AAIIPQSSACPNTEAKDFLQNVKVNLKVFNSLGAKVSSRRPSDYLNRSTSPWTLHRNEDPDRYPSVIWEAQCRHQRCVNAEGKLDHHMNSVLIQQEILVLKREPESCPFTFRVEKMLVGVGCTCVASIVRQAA

B1: humanized antibody IL17A-H069 (antibody, human IgG1, kappa, V domains shown)
VH: EVQLVQSGAEVKKPGATVKISCKASGYTFTDYEMHWVQQAPGHGLEWMGVIHPGGGGTAYNQKFKGRVTITADTSTDTAYMELSSLRSEDTAVYYCTRGDHDGRTDYWGQGTLVTVSS
VL: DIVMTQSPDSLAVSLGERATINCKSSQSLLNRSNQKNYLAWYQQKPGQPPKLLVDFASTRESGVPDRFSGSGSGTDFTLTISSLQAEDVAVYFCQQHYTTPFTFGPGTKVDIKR
notes: Humanized IgG1/kappa made in CHO-K1-GS cells
B2: murine antibody IL17A-M069 (antibody, mouse IgG1, V domains shown)
VH: QAHLQQSGAELVRPGASVKLSCKALGYTFTDYEMHWVKQTPVHGLEWIGVIHPGGGGTAYNQKFKGKATLTADKSSSTAYMELSSLTSEDSAVYYCTRGDHDGRTDYWGQGTTLTVSS
VL: DIVMSQSPSSLAMSVGQKVTMNCKSNQSLLNRSNQKNYLAWYQQKPGQSPKLLVDFASTRESGVPDRFIGSGSGTDFSLTISSVQAEDLADYFCQQHYTTPFTFGSGTKLEIK

Columns and labels:
[1] = molecular target: T2, recombinant human IL17A protein (human, UniProt Q16552 24-155); experiment: cell-based or functional assay
T2 sequence (Q16552 24-155 limits assumed): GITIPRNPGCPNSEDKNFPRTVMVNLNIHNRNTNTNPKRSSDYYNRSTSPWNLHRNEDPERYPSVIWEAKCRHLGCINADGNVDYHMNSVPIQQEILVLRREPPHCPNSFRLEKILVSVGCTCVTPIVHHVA

[2] = molecular target: T3, recombinant human IL17A/F dimer protein (SinoBiological, Inc., CT047-HNAE) (human, UniProt Q16552 24-155; Q96PD4 31-163); experiment: cell-based or functional assay
T3 sequence (Q16552 24-155 limits assumed, chain 1 of 2): as the sequence (Q16552 24-155 limits assumed) above
T3 sequence (Q96PD4 31-163 limits assumed, chain 2 of 2): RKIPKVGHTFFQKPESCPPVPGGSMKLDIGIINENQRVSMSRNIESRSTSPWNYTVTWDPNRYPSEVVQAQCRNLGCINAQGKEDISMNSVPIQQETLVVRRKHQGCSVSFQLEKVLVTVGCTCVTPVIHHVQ

[3] = molecular target: T1, mouse mIL17A protein (Sino Biological, …); experiment: ELISA, coated antigen, goat anti-human IgG Fc/HRP
[4] = molecular target: T2, recombinant human IL17A protein; experiment: Octet (BLI), biotinylated IL17A, antibody 0.42-3.47 nM
[5] = molecular target: T3, recombinant human IL17A/F dimer protein …; experiment: Octet (BLI), biotinylated IL17A/F, antibody 0.42-3.47 nM
[6] = molecular target: T2, recombinant human IL17A protein; experiment: competition ELISA: IL17A coated, competitor IL17RA-His-biotin at 2 µg/mL, antibody varied
[7] = molecular target: T3, recombinant human IL17A/F dimer protein …; experiment: competition ELISA: IL17RA-Fc coated (competitor), IL17A/F-Biotin at 0.8 µg/mL, antibody varied
[8] = molecular target: T2, recombinant human IL17A protein; experiment: ELISA: IL17A coated at different concentrations, antibody fixed at 2 µg/mL, anti-human IgG Fc/HRP; EC50 is on the antigen concentration
[9] = molecular target: T3, recombinant human IL17A/F dimer protein …; experiment: ELISA: IL17A/F coated at different concentrations, antibody fixed at 2 µg/mL, anti-human IgG Fc/HRP; EC50 is on the antigen concentration
[10] = molecular target: T2, recombinant human IL17A protein; experiment: cell-based or functional assay; remark: listed apart in the source

Binder	EC50 (µg/mL), blocking IL17A-induced IL6 secretion of HFF cells [1]	EC50 (µg/mL), blocking IL17A/F-induced IL6 secretion of HFF cells [2]	binding result [3]	Kd [4] [pM]	koff [4] [s⁻¹]	kon [4] [M⁻¹ s⁻¹]	Kd [5] [pM]	koff [5] [s⁻¹]	kon [5] [M⁻¹ s⁻¹]	IC50 [6] [µg/mL]	IC50 [7] [µg/mL]	EC50 [8] [µg/mL]	EC50 [9] [µg/mL]	EC50 of blocking IL17A-induced IL-6 secretion of HFF cells [10] [µg/mL]
B1	0.2 µg/mL and 0.19 µg/mL	1.19 µg/mL and 0.83 µg/mL	no binding	28.8	1.93e-05	671000	537	7.72e-05	144000	0.5	1.02	0.046	0.0363	–
B2	–	–	–	–	–	–	–	–	–	–	–	–	–	0.243
